Measurements taken from publication doi:10.1101/681668 (bioRxiv, 2019).

How the values were obtained:
Assay in all cases: pull-down
MBP-ORC1 CDK123 = target: T1, MBP-ORC1 CDK123 (human, UniProt Q13415 1-861, S258A | S273A | T375A)
T1 sequence: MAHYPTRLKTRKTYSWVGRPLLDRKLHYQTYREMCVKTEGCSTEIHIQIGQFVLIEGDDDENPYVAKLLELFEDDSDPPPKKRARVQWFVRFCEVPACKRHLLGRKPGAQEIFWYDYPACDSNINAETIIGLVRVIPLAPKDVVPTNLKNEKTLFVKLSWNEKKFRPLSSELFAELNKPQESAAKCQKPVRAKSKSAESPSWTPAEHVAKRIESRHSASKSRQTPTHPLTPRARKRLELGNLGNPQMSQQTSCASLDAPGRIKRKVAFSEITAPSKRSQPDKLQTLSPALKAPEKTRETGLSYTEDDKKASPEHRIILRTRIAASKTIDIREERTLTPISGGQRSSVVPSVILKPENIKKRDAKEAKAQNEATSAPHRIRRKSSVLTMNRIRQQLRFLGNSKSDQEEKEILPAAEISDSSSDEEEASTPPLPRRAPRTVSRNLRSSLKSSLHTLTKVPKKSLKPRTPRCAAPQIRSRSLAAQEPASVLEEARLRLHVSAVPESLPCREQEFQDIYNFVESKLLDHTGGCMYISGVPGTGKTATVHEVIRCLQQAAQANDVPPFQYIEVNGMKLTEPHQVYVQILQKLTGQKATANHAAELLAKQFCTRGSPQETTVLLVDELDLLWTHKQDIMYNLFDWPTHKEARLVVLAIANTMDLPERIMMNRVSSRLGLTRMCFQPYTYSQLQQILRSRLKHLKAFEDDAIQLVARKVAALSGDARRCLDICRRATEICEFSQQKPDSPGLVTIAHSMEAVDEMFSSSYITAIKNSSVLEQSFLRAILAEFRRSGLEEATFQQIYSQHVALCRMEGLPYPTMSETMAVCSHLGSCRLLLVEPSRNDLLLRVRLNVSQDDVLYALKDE

MBP-ORC1 R105Q = target: T2, MBP-ORC1 R105Q (human, UniProt Q13415 1-861, R105Q)
T2 sequence: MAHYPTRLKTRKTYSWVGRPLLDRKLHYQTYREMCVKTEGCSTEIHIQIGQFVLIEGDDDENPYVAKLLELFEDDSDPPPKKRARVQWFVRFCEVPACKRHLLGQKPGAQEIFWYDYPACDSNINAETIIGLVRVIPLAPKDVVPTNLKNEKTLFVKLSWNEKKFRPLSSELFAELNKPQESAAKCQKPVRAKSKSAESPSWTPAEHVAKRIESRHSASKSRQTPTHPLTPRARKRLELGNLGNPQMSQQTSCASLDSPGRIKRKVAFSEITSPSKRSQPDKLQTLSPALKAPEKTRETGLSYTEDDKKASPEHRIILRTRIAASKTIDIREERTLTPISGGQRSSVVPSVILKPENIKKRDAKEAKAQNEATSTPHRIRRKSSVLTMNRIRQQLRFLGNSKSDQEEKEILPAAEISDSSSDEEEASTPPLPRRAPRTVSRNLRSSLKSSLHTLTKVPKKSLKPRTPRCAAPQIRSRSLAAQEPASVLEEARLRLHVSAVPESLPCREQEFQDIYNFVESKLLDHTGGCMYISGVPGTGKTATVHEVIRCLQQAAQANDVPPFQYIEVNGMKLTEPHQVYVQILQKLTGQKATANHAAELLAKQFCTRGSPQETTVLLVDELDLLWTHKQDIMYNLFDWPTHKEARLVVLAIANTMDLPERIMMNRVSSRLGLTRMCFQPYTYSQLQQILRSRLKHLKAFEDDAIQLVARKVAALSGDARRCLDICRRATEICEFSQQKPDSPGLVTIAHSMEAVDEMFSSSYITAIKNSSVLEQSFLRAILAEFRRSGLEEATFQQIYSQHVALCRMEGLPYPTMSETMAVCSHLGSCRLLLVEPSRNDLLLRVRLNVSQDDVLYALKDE

MBP-ORC1 A-A = target: T3, MBP-ORC1 A-A (human, UniProt Q13415 1-861, 235KRL237 to 235ARA237)
T3 sequence: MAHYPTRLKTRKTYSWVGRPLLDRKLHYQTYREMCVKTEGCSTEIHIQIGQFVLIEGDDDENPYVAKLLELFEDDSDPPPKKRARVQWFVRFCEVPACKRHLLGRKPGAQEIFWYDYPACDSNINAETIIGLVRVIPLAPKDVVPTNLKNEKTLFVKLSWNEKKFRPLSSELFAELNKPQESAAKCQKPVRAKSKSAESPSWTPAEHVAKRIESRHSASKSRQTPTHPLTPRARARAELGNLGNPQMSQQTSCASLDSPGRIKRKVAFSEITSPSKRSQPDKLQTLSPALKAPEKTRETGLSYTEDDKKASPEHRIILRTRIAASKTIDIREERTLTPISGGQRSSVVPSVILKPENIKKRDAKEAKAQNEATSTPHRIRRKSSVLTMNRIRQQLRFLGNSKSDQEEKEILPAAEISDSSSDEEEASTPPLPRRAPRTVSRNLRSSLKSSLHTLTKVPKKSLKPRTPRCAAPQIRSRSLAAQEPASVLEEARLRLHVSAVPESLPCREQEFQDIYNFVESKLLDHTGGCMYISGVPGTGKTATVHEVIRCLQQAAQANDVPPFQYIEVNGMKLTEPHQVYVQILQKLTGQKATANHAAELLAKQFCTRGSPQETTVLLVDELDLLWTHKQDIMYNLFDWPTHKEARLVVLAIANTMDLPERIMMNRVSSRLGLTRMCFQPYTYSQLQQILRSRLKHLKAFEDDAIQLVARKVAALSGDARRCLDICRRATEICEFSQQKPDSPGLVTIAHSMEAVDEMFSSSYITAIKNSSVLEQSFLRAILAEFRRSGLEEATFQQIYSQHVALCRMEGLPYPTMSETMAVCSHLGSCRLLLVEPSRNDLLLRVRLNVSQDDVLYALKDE

- binding result (MBP-ORC1 CDK123): binds
- binding result (MBP-ORC1 R105Q): binds
- binding result (MBP-ORC1 A-A): binds
B1: GST-CDC6 (natural protein)
chain: MPQTRSQAQATISFPKRKLSRALNKAKNSSDAKLEPTNVQTVTCSPRVKALPLSPRKRLGDDNLCNTPHLPPCSPPKQGKKENGPPHSHTLKGRRLVFDNQLTIKSPSKRELAKVHQNKILSSVRKSQEITTNSEQRCPLKKESACVRLFKQEGTCYQQAKLVLNTAVPDRLPAREREMDVIRNFLREHICGKKAGSLYLSGAPGTGKTACLSRILQDLKKELKGFKTIMLNCMSLRTAQAVFPAIAQEICQEEVSRPAGKDMMRKLEKHMTAEKGPMIVLVLDEMDQLDSKGQDVLYTLFEWPWLSNSHLVLIGIANTLDLTDRILPRLQAREKCKPQLLNFPPYTRNQIVTILQDRLNQVSRDQVLDNAAVQFCARKVSAVSGDVRKALDVCRRAIEIVESDVKSQTILKPLSECKSPSEPLIPKRVGLIHISQVISEVDGNRMTLSQEGAQDSFPLQQKILVCSLMLLIRQLKIKEVTLGKLYEAYSKVCRKQQVAAVDQSECLSLSGLLEARGILGLKRNKETRLTKVFFKIEEKEIEHALKDKALIGNILATGLP
